Experimental data taken from patent US20200239543A1 (ALX ONCOLOGY, published 2020).
Changes are numbered by the printed parent chain. Names and notes keep the numbering of the source.

T1: human Fcγ receptor RIIA (CD32a) (human, UniProt P12318 36-218)
T1 construct: bought recombinant protein; also called hFcγR
T1 sequence (looked up): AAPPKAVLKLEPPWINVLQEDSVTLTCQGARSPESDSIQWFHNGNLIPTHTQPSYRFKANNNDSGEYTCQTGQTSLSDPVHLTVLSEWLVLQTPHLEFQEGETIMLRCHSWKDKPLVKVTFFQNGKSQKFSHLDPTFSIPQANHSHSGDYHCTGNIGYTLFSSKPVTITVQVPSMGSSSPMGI

T2: human Fcγ receptor RIIB/C (CD32b/c) (human, UniProt P31994 46-217)
T2 construct: bought recombinant protein; also called CD32c; hFcγR
T2 sequence (looked up): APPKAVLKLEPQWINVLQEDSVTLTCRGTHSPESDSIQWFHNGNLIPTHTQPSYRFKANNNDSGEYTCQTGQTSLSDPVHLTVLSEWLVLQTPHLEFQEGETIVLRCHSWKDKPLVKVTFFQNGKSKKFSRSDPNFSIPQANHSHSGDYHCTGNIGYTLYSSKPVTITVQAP

T3: mouse CD47 (mouse, UniProt Q61735 19-140, limits assumed)
T3 construct: also called mouse CD47 protein
T3 sequence (looked up): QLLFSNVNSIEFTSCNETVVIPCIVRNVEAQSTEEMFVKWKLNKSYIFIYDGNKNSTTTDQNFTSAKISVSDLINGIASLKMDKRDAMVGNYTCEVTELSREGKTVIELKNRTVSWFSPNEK

T4: rat CD47 (rat, UniProt P97829 19-140, limits assumed)
T4 sequence (looked up): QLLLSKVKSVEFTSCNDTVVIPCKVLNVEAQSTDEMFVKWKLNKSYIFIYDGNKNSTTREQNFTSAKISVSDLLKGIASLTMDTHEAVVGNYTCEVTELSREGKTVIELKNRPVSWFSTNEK

B1: SIRP-α D1 variant polypeptide of SEQ ID NO: 61 (receptor)
chain: EEELQIIQPDKSVSVAAGESAILHCTITSLFPVGPIQWFRGAGPARVLIYNQRQGHFPRVTTVSETTKRENMDFSISISNITPADAGTYYCIKFRKGSPDTEFKSGAGTELSVRAKPS
notes: engineered SIRP-α D1 domain
B2: SIRP-α D1 variant polypeptide of SEQ ID NO: 62 (receptor)
chain: B1 chain with H56P, T66S
notes: engineered SIRP-α D1 domain
B3: SIRP-α D1 variant polypeptide of SEQ ID NO: 63 (receptor)
chain: B1 chain with H56P, I92V
notes: engineered SIRP-α D1 domain
B4: SIRP-α Fc construct with Fc variant IgG1_AAA (L234A, L235A, G237A), SEQ ID NO: 124 (Fc fusion)
chain: EEELQIIQPDKSVLVAAGETATLRCTITSLFPVGPIQWFRGAGPGRVLIYNQRQGPFPRVTTVSDTTKRNNMDFSIRIGNITPADAGTYYCIKFRKGSPDDVEFKSGAGTELSVRAKPSDKTHTCPPCPAPEAAGAPSVFLFPPKPKDTLMISRTPEVTCVVVDVSHEDPEVKFNWYVDGVEVHNAKTKPREEQYNSTYRVVSVLTVLHQDWLNGKEYKCKVSNKALPAPIEKTISKAKGQPREPQVYTLPPSREEMTKNQVSLTCLVKGFYPSDIAVEWESNGQPENNYKTTPPVLDSDGSFFLYSKLTVDKSRWQQGNVFSCSVMHEALHNHYTQKSLSLSPGK
B5: SIRP-α D1 variant fused to Fc variant, SEQ ID NO: 100 (Fc fusion)
chain: B4 chain with I6V, I27A, V47E, Q54E, T66L, N80A, I92V, N196A
B6: SIRP-α D1 variant fused to Fc variant, SEQ ID NO: 104 (Fc fusion)
chain: B4 chain with V47E, Q54E, N80A, I92V, N196A
B7: SIRP-α D1 variant polypeptide of SEQ ID NO: 71 (receptor)
chain: EEELQVIQPDKSVLVAAGETATLRCTATSLFPVGPIQWFRGAGPGRELIYNQRQGPFPRVTTVSDLTKRNNMDFSIRIGNITPADAGTYYCVKFRKGSPDDVEFKSGAGTELSVRAKPS
notes: engineered SIRP-α D1 domain
B8: SIRP-α D1 variant polypeptide of SEQ ID NO: 72 (receptor)
chain: B7 chain with V6I, A27I, Q54E
notes: engineered SIRP-α D1 domain
B9: SIRP-α D1 variant polypeptide of SEQ ID NO: 73 (receptor)
chain: B7 chain with A27I, Q54E, L66T
notes: engineered SIRP-α D1 domain
B10: SIRP-α D1 variant polypeptide of SEQ ID NO: 74 (receptor)
chain: B7 chain with V6I, A27I, Q54E, L66T
notes: engineered SIRP-α D1 domain
B11: SIRP-α D1 variant polypeptide of SEQ ID NO: 75 (receptor)
chain: B7 chain with A27I, Q54E
notes: engineered SIRP-α D1 domain
B12: SIRP-α D1 variant polypeptide of SEQ ID NO: 76 (receptor)
chain: B7 chain with Q54E
notes: engineered SIRP-α D1 domain
B13: SIRP-α D1 variant polypeptide of SEQ ID NO: 77 (receptor)
chain: B7 chain with V6I, A27I, E47V, L66T, V92I
notes: engineered SIRP-α D1 domain
B14: SIRP-α D1 variant polypeptide of SEQ ID NO: 86 (receptor)
chain: B7 chain with V6I, A27I, E47V, L66T, V92I
notes: engineered SIRP-α D1 domain
B15: SIRP-α D1 variant polypeptide of SEQ ID NO: 204 (receptor)
chain: B7 chain with V6I, A27I, F31R, Q54D, L66T, N80A
B16: SIRP-α D1 variant polypeptide of SEQ ID NO: 206 (receptor)
chain: B7 chain with V6I, A27I, F31R, Q54D, L66T, N80A, S98I
B17: SIRP-α D1 variant polypeptide of SEQ ID NO: 209 (receptor)
chain: B7 chain with V6I, A27I, F31Y, Q54D, L66T, N80A, S98I
B18: SIRP-α D1 variant polypeptide of SEQ ID NO: 210 (receptor)
chain: B7 chain with V6I, A27I, Q54D, L66T, N80A, S98I
B19: SIRP-α Fc construct with wildtype IgG2 Fc, SEQ ID NO: 126 (Fc fusion)
chain: EEELQIIQPDKSVLVAAGETATLRCTITSLFPVGPIQWFRGAGPGRVLIYNQRQGPFPRVTTVSDTTKRNNMDFSIRIGNITPADAGTYYCIKFRKGSPDDVEFKSGAGTELSVRAKPSERKCCVECPPCPAPPVAGPSVFLFPPKPKDTLMISRTPEVTCVVVDVSHEDPEVQFNWYVDGVEVHNAKTKPREEQFNSTFRVVSVLTVVHQDWLNGKEYKCKVSNKGLPAPIEKTISKTKGQPREPQVYTLPPSREEMTKNQVSLTCLVKGFYPSDIAVEWESNGQPENNYKTTPPMLDSDGSFFLYSKLTVDKSRWQQGNVFSCSVMHEALHNHYTQKSLSLSPGK

What was measured:
[1] = biological target: T5, human Fcγ receptor RI (CD64) (human, UniProt P12314 16-288); assay: SPR (ProteOn XPR36), biotinylated Fc construct on NLC chip, hFcγR as analyte, KD,app
T5 construct: bought recombinant protein; also called hFcγRI; hFcγR

[2] = biological target: T1, human Fcγ receptor RIIA (CD32a); assay: as above
[3] = biological target: T2, human Fcγ receptor RIIB/C (CD32b/c); assay: as above
[4] = biological target: T6, human CD47 (human, UniProt Q08722 19-139); assay: SPR; protein made in E. coli
T6 construct: extracellular domain; also called CD47 ECD

[5] = biological target: T6, human CD47; assay: SPR, 25 C, 1:1 Langmuir fit
[6] = biological target: T2, human Fcγ receptor RIIB/C (CD32b/c); assay: SPR (ProteOn XPR36), biotinylated Fc construct on NLC chip, hFcγR as analyte
[7] = biological target: T7, human Fcγ receptor RIIIA (CD16a) (human, UniProt P08637 17-208); assay: as above
T7 construct: bought recombinant protein; also called hFcγR

[8] = biological target: T3, mouse CD47; assay: SPR, 25 C, 1:1 Langmuir fit
[9] = biological target: T6, human CD47; assay: SPR, 25 C, 1:1 Langmuir fit; remark: listed apart in the source
[10] = biological target: T6, human CD47; assay: SPR as in Example 1
[11] = biological target: T6, human CD47; assay: SPR; protein made in mammalian cell
[12] = biological target: T3, mouse CD47; assay: SPR (Biacore T100 and ProteOn XPR36)
[13] = biological target: T6, human CD47; assay: SPR (Biacore T100 and ProteOn XPR36)
[14] = biological target: T4, rat CD47; assay: SPR (Biacore T100 and ProteOn XPR36)

T5 sequence (P12314 16-288 limits assumed): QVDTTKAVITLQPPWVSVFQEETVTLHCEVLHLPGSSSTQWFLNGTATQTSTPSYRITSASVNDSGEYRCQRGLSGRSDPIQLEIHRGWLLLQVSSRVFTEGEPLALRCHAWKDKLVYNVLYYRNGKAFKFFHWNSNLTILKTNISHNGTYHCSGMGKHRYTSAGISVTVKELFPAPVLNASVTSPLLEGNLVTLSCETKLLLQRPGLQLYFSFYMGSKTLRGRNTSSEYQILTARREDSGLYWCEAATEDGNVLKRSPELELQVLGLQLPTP
T6 sequence (Q08722 19-139 limits assumed): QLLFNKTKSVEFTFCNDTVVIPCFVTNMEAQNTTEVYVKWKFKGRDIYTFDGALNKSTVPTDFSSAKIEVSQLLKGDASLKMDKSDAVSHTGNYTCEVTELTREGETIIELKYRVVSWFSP
T7 sequence (P08637 17-208 limits assumed): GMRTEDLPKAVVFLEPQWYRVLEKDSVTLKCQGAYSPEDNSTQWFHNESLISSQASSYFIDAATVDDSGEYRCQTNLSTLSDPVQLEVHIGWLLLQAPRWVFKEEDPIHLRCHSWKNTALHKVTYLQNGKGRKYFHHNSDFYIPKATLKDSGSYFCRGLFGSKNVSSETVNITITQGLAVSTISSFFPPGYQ

Molecule | Kd [5] | Kd [8] | Kd [9] | Kd [11] | also measured
Fc variant construct IgG4_S228P, E233P, F234V, L235A, delG236 (Fc fusion) |  |  |  |  | Kd [1]: 2100 nM; Kd [2]: 1600 nM
Fc variant construct IgG4_S228P (Fc fusion) |  |  |  |  | Kd [3]: 850 nM; Kd [1]: 1 nM; Kd [2]: 810 nM
B1 | 0.38 nM |  |  |  | Kd [4]: 0.38 nM
B2 | 0.13 nM |  |  |  | Kd [4]: 0.13 nM
B3 | 0.089 nM |  |  |  | Kd [4]: 0.089 nM
B4 |  |  |  |  | Kd [1]: 8000 nM; Kd [2]: 2300 nM; binding result [6]: no binding (tested: 5000 nM); binding result [7]: no binding (tested: 5000 nM)
B5 |  | 63.2 nM | 2.69 nM |  | Kd [10]: 1.79 nM
B6 |  | 8.04 nM | 0.0919 nM |  | 
B7 | 4.94 nM |  |  | 4.94 nM | 
B8 | 0.738 nM |  |  | 0.738 nM | 
B9 | 0.448 nM |  |  | 0.448 nM | 
B10 | 0.276 nM |  |  | 0.276 nM | 
B11 | 1.33 nM |  |  | 1.33 nM | 
B12 | 7.41 nM |  |  | 7.41 nM | 
B13 | 0.114 nM |  |  | 0.114 nM | 
B14 |  | 43 nM | 0.0144 nM |  | 
B15 |  | 5.21 nM | 3.49 nM |  | Kd [12]: 0.448 nM; Kd [13]: 0.653 nM; Kd [14]: 3.42 nM
B16 |  | 3.33 nM | 5.26 nM |  | Kd [12]: 0.288 nM; Kd [13]: 0.967 nM; Kd [14]: 1.49 nM
B17 |  | 4.11 nM | 4.46 nM |  | Kd [12]: 0.371 nM; Kd [13]: 1.01 nM; Kd [14]: 2.26 nM
B18 |  | 6.01 nM | 6.79 nM |  | Kd [12]: 0.612 nM; Kd [13]: 1.65 nM; Kd [14]: 4.59 nM
B19 |  |  |  |  | Kd [1]: 700 nM; Kd [2]: 420 nM; binding result [6]: no binding (tested: 5000 nM); binding result [7]: no binding (tested: 5000 nM)
